Results taken from article PMC12150756 (Infection and Immunity, 2025).
Where two headings read alike, the source gives them in different places.

Columns and labels:
[1] = biological target: T1, PfCSPC, C-terminal αTSR domain of P. falciparum NF54 circumsporozoite protein (E310-S384) (P. falciparum NF54, UniProt P19597)
[2] = biological target: T2, PfCSPFL, recombinant full-length P. falciparum NF54 circumsporozoite protein devoid of signal peptide and GPI … (P. falciparum NF54, UniProt P19597)
[3] = biological target: T1, PfCSPC, C-terminal αTSR domain of P. …; test: crystal structure; sdAb:PfCSPC complex prepared at 1.2:1, purified by SEC in 20 mM Tris-HCl, 150 mM NaCl, pH 7.5; sitting drop at 20°C; tags retained; data to ~2.1 Å; details: both partners purified
[4] = biological target: T3, full-length CSP from P. falciparum 3D7 on the surface of transgenic P. berghei ANKA sporozoites (PfCSP-PbSPZs) (P. falciparum 3D7, UniProt Q7K740); test: flow cytometry on cells; salivary gland PfCSP-PbSPZs (15- and 22-day-old), formaldehyde-fixed; sdAb incubated at ambient temperature; detected with anti-HA Alexa Fluor 647; MFI; details: one partner purified
T3 construct: Full-length circumsporozoite protein of P. falciparum 3D7, expressed on transgenic P. berghei ANKA sporozoites; The same protein on midgut (MG) and salivary gland (SG) sporozoites; the assays tell them apart; also called PfCSP on MG SPZs; PfCSP on SG SPZs; source: transgenic P. berghei ANKA sporozoites isolated from midguts or salivary glands of Anopheles stephensi

[5] = biological target: PbCSPFL, recombinant full-length P. berghei ANKA circumsporozoite protein devoid of signal peptide and GPI … (Plasmodium berghei ANKA, UniProt P23093); test: ELISA; antigen coated at 1 µg/mL on Maxisorb plates, blocked with 5% milk in PBS; purified sdAb at 1 µg/mL, 1 h at room temperature, triplicates; detected with anti-HA mAb and anti-mouse-HRP; details: both partners purified
[6] = biological target: T2, PfCSPFL, recombinant full-length P. …; test: as above; details: both partners purified

T2 sequence (P19597 20-384): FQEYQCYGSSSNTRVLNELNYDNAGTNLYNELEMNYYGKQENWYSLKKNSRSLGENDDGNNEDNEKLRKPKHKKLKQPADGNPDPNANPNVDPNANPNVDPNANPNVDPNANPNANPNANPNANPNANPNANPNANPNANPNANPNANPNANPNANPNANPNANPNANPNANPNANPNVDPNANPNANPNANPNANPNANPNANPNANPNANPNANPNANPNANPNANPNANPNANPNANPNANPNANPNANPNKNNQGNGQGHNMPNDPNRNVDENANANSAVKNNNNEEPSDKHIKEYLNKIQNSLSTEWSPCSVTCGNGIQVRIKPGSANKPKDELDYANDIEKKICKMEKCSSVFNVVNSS
T1 sequence (P19597 310-384): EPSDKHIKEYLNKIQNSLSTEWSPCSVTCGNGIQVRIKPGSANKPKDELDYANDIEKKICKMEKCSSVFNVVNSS
T3 sequence (Q7K740 19-374): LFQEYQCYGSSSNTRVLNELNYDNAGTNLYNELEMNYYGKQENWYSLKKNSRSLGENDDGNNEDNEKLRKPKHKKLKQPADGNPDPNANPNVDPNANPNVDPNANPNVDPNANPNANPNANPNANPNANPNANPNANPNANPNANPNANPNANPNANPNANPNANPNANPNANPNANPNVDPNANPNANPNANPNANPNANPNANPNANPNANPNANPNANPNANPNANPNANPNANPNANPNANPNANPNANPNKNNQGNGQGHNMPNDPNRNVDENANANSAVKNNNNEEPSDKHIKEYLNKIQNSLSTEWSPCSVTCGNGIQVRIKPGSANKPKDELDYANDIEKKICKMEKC

Binder | binding result [1] | binding result [2] | binding result [3] | binding result [4] | binding result [5] | binding result [6]
sdAb2 (VHH) VHH: QVQLQESGGGLVQFGGSLRLSCAASGFTFSSANMSWVRQAPGKGLEWVSTISPGGGTTSYAGSVKGRFTISRDNAKNTLYLQMNALKPEDTAVYYCATGGPSSQESVYRGQGTQVTVSS | binds | binds |  |  |  | 
sdAb10 (VHH) VHH: QVQLQESGGGLVQPGGSLRLSCAASGRTFSSYTMGWFRQAPGKERELVAAISRSGLNTDYADSVKGRFTISRDNAKNTVYLQMNTLKPEDTAVYYCAARSTIRLLTDPSYDYWGQGTQVTVSS | binds | binds |  |  |  | 
sdAb18 (VHH) VHH: QVQLQESGGGLVQPGGSLNLSCTAGVSLDYYAIGWFRQAPGKEREFVARISSSGGNTYYADSVRGRFTISRDNAKNTVYLQMNSLKPEDTAVYYCAADLLQFGRSSRAADYDYWGQGTQVTVSS | binds | binds |  |  |  | 
sdAb3 (VHH) VHH: QVQLQESGGGLVQAGGSLRLSCAASGRTFTEYSMGWFRQAPGKEREFVARISWSGGSTYYADSVKGRFTISRDNAENTVYLQMTSLKPEDTAVYYCAADQLQFGRNSRAADYDDWGQGTQVTVSS | binds | binds |  |  |  | 
sdAb8 (VHH) VHH: QVQLQESGGGLVQAGGSLRLSCAASGRTVSSYTMGWFRQAPGKERSFVAASLRSGGSTYYSDSVKGRFTISRDNAKNTVYLQMNSLRPEDTAVYYCAADEQLAYNINYNYRNYDYWGQGTQVTVSS | binds | binds |  |  |  | 
sdAb4 (VHH) VHH: QVQLQESGGGLVQVGGSLRLSCAASGRTFSSYTMAWFRQAPGKEREFVAAISRSGSNTYYADSVKGRFTISRDNAKNTVYLQMSSLYPEDTAVYTCAARDAILLLTTTHYDYWGQGTQVTVSS | binds | binds |  |  |  | 
sdAb6 (VHH) VHH: QVQLQESGGGLVQAGGSLRVSCVGSGRAFSRYSMGWFRQFPGKEREFVACISSSGGAIDYADSVKGRFTISRDNAKNAVYLQMNSLKPDDTAVYYCAADQFRISTVPMGVIDYWGQGTQVTVSS | binds | binds |  |  |  | 
sdAb15 (VHH) VHH: QVQLQESGGGLVQAGGSLRLSCVATGRPFDDYTVAWFRQAPGKERDFVAAISRSGVSTYYQDDVKGRFTISRDNARNTAYLSMNSLKPEDTAVYYCAARSTIRLLTDPSYDYWGQGTQVTVSS | binds | binds |  |  |  | 
sdAb5 (VHH) VHH: QVQLQESGGGLVQAGGSLRLSCAASGRTFGSYVMGWFRQAPGKEREFVAAISRSGGTTYYADSVKGRFAISRDNAKNTVFLQMNSLKPEDTAVYYCAATTTISMLVVLTTTPKYDYWGQGTQVTVSS | binds | binds |  |  |  | 
sdAb7 (VHH) VHH: QVQLQESGGGVVQTGGSLRLSCAASVRTFSNYALGWFRQAPGKEREFVARISSSGGNTYYADSVRGRFTISRDNAKNTVYLQMNSLKPEDTAVYYCAADLLQFGRSSRAADYDYWGQGTQVTVSS | binds | binds |  |  |  | 
sdAb1, anti-PfCSP camelid single-domain antibody (VHH, from the library of the alpaca Attitude (immunized with PfCSPFL); Expressed from pMECS-GG; Same VHH family as sdAb9; source: E. coli WK6, periplasmic extract, purified (Ni-NTA, SEC); crude bacterial extract for the screening ELISA) VHH: QVQLQESGGGLVQAGGSLRLSCAASGRTFSSYSMGWFRLVPGKEREFVARISSSGGNTYYADSVRGRFTISRDNAKNTVYLQMNSLKPEDTAVYYCAADLLQFGRSSRAADYDYWGQGTQVTVSS |  |  | binds | binds | no binding (tested: 1 µg/mL sdAb) | binds
sdAb9, anti-PfCSP camelid single-domain antibody (VHH, from the library of the alpaca Attitude (immunized with PfCSPFL); Expressed from pMECS-GG; Same VHH family as sdAb1; source: E. coli WK6, periplasmic extract, purified (Ni-NTA, SEC); crude bacterial extract for the screening ELISA) VHH: QVQLQESGGGLVQAGGSLRLSCAASGRTFSSYSMGWFRQVPGKEREFVARITSSGGNTDYADSAKGRFTISRDNAKNTVYLQMSTLKPEDTAVYYCAADLWQYGRNSRAADYDYWGQGTQVTVSS |  |  | binds | binds | no binding (tested: 1 µg/mL sdAb) | binds
